Each block holds one molecule with its values, some of them ahead of it.
How the values were obtained:
GFP-14-3-3β = GFP-14-3-3β co-IP with LC-MS/MS, untreated GFP-14-3-3β versus GFP control (14-3-3 interactome); format: binding, human; details: label-free quantification, 3 replicates each
[1] = system: GFP-14-3-3β and its binding proteins; assay: GFP-14-3-3β co-IP with LC-MS/MS label-free quantification, untreated versus PP1c-treated; parameters: species or system human; details: label-free quantification, 3 replicates each
[2] = GFP-14-3-3β co-IP LC-MS/MS, untreated vs GFP, student's t-test
[3] = GFP-14-3-3β co-IP LC-MS/MS, PP1 vs untreated, student's t-test

Difference (log2), PP1 vs untreated [1, 3]: -0.1954 log2
B2: MYO1E (protein, UniProt Q12965 1-1108, looked up)
Unconventional myosin-Ie: MGSKGVYQYHWQSHNVKHSGVDDMVLLSKITENSIVENLKKRYMDDYIFTYIGSVLISVNPFKQMPYFGEKEIEMYQGAAQYENPPHIYALADNMYRNMIIDRENQCVIISGESGAGKTVAAKYIMSYISRVSGGGTKVQHVKDIILQSNPLLEAFGNAKTVRNNNSSRFGKYFEIQFSPGGEPDGGKISNFLLEKSRVVMRNPGERSFHIFYQLIEGASAEQKHSLGITSMDYYYYLSLSGSYKVDDIDDRREFQETLHAMNVIGIFAEEQTLVLQIVAGILHLGNISFKEVGNYAAVESEEFLAFPAYLLGINQDRLKEKLTSRQMDSKWGGKSESIHVTLNVEQACYTRDALAKALHARVFDFLVDSINKAMEKDHEEYNIGVLDIYGFEIFQKNGFEQFCINFVNEKLQQIFIELTLKAEQEEYVQEGIRWTPIEYFNNKIVCDLIENKVNPPGIMSILDDVCATMHAVGEGADQTLLQKLQMQIGSHEHFNSWNQGFIIHHYAGKVSYDMDGFCERNRDVLFMDLIELMQSSELPFIKSLFPENLQADKKGRPTTAGSKIKKQANDLVSTLMKCTPHYIRCIKPNETKKPRDWEESRVKHQVEYLGLKENIRVRRAGYAYRRIFQKFLQRYAILTKATWPSWQGEEKQGVLHLLQSVNMDSDQFQLGRSKVFIKAPESLFLLEEMRERKYDGYARVIQKSWRKFVARKKYVQMREEASDLLLNKKERRRNSINRNFIGDYIGMEEHPELQQFVGKREKIDFADTVTKYDRRFKGVKRDLLLTPKCLYLIGREKVKQGPDKGLVKEVLKRKIEIERILSVSLSTMQDDIFILHEQEYDSLLESVFKTEFLSLLAKRYEEKTQKQLPLKFSNTLELKLKKENWGPWSAGGSRQVQFHQGFGDLAVLKPSNKVLQVSIGPGLPKNSRPTRRNTTQNTGYSSGTQNANYPVRAAPPPPGYHQNGVIRNQYVPYPHAPGSQRSNQKSLYTSMARPPLPRQQSTSSDRVSQTPESLDFLKVPDQGAAGVRRQTTSRPPPAGGRPKPQPKPKPQVPQCKALYAYDAQDTDELSFNANDIIDIIKEDPSGWWTGRLRGKQGLFPNNYVTKI
Difference (log2), untreated vs GFP (GFP-14-3-3β; [2]): 1.374 log2

Difference (log2), PP1 vs untreated [1, 3]: -0.1648 log2
B3: SMC3 (protein, UniProt Q9UQE7 1-1217, looked up)
Structural maintenance of …: MYIKQVIIQGFRSYRDQTIVDPFSSKHNVIVGRNGSGKSNFFYAIQFVLSDEFSHLRPEQRLALLHEGTGPRVISAFVEIIFDNSDNRLPIDKEEVSLRRVIGAKKDQYFLDKKMVTKNDVMNLLESAGFSRSNPYYIVKQGKINQMATAPDSQRLKLLREVAGTRVYDERKEESISLMKETEGKREKINELLKYIEERLHTLEEEKEELAQYQKWDKMRRALEYTIYNQELNETRAKLDELSAKRETSGEKSRQLRDAQQDARDKMEDIERQVRELKTKISAMKEEKEQLSAERQEQIKQRTKLELKAKDLQDELAGNSEQRKRLLKERQKLLEKIEEKQKELAETEPKFNSVKEKEERGIARLAQATQERTDLYAKQGRGSQFTSKEERDKWIKKELKSLDQAINDKKRQIAAIHKDLEDTEANKEKNLEQYNKLDQDLNEVKARVEELDRKYYEVKNKKDELQSERNYLWREENAEQQALAAKREDLEKKQQLLRAATGKAILNGIDSINKVLDHFRRKGINQHVQNGYHGIVMNNFECEPAFYTCVEVTAGNRLFYHIVDSDEVSTKILMEFNKMNLPGEVTFLPLNKLDVRDTAYPETNDAIPMISKLRYNPRFDKAFKHVFGKTLICRSMEVSTQLARAFTMDCITLEGDQVSHRGALTGGYYDTRKSRLELQKDVRKAEEELGELEAKLNENLRRNIERINNEIDQLMNQMQQIETQQRKFKASRDSILSEMKMLKEKRQQSEKTFMPKQRSLQSLEASLHAMESTRESLKAELGTDLLSQLSLEDQKRVDALNDEIRQLQQENRQLLNERIKLEGIITRVETYLNENLRKRLDQVEQELNELRETEGGTVLTATTSELEAINKRVKDTMARSEDLDNSIDKTEAGIKELQKSMERWKNMEKEHMDAINHDTKELEKMTNRQGMLLKKKEECMKKIRELGSLPQEAFEKYQTLSLKQLFRKLEQCNTELKKYSHVNKKALDQFVNFSEQKEKLIKRQEELDRGYKSIMELMNVLELRKYEAIQLTFKQVSKNFSEVFQKLVPGGKATLVMKKGDVEGSQSQDEGEGSGESERGSGSQSSVPSVDQFTGVGIRVSFTGKQGEMREMQQLSGGQKSLVALALIFAIQKCDPAPFYLFDEIDQALDAQHRKAVSDMIMELAVHAQFITTTFRPELLESADKFYGVKFRNKVSHIDVITAEMAKDFVEDDTTHG
Difference (log2), untreated vs GFP (GFP-14-3-3β; [2]): 0.1297 log2

Difference (log2), PP1 vs untreated [1, 3]: -0.1579 log2
B5: SF3B2 (protein, UniProt Q13435 1-895, looked up)
Splicing factor 3B subunit 2: MATEHPEPPKAELQLPPPPPPGHYGAWAAQELQAKLAEIGAPIQGNREELVERLQSYTRQTGIVLNRPVLRGEDGDKAAPPPMSAQLPGIPMPPPPLGLPPLQPPPPPPPPPPGLGLGFPMAHPPNLGPPPPLRVGEPVALSEEERLKLAQQQAALLMQQEERAKQQGDHSLKEHELLEQQKRAAVLLEQERQQEIAKMGTPVPRPPQDMGQIGVRTPLGPRVAAPVGPVGPTPTVLPMGAPVPRPRGPPPPPGDENREMDDPSVGPKIPQALEKILQLKESRQEEMNSQQEEEEMETDARSSLGQSASETEEDTVSVSKKEKNRKRRNRKKKKKPQRVRGVSSESSGDREKDSTRSRGSDSPAADVEIEYVTEEPEIYEPNFIFFKRIFEAFKLTDDVKKEKEKEPEKLDKLENSAAPKKKGFEEEHKDSDDDSSDDEQEKKPEAPKLSKKKLRRMNRFTVAELKQLVARPDVVEMHDVTAQDPKLLVHLKATRNSVPVPRHWCFKRKYLQGKRGIEKPPFELPDFIKRTGIQEMREALQEKEEQKTMKSKMREKVRPKMGKIDIDYQKLHDAFFKWQTKPKLTIHGDLYYEGKEFETRLKEKKPGDLSDELRISLGMPVGPNAHKVPPPWLIAMQRYGPPPSYPNLKIPGLNSPIPESCSFGYHAGGWGKPPVDETGKPLYGDVFGTNAAEFQTKTEEEEIDRTPWGELEPSDEESSEEEEEEESDEDKPDETGFITPADSGLITPGGFSSVPAGMETPELIELRKKKIEEAMDGSETPQLFTVLPEKRTATVGGAMMGSTHIYDMSTVMSRKGPAPELQGVEVALAPEELELDPMAMTQKYEEHVREQQAQVEKEDFSDMVAEHAAKQKQKKRKAQPQDSRGGSKKYKEFKF
Difference (log2), untreated vs GFP (GFP-14-3-3β; [2]): 2.239 log2

The remaining lines, values behind:

B1: DSG2 (protein, UniProt Q14126 50-1118, looked up)
Desmoglein-2: AWITAPVALREGEDLSKKNPIAKIHSDLAEERGLKITYKYTGKGITEPPFGIFVFNKDTGELNVTSILDREETPFFLLTGYALDARGNNVEKPLELRIKVLDINDNEPVFTQDVFVGSVEELSAAHTLVMKINATDADEPNTLNSKISYRIVSLEPAYPPVFYLNKDTGEIYTTSVTLDREEHSSYTLTVEARDGNGEVTDKPVKQAQVQIRILDVNDNIPVVENKVLEGMVEENQVNVEVTRIKVFDADEIGSDNWLANFTFASGNEGGYFHIETDAQTNEGIVTLIKEVDYEEMKNLDFSVIVANKAAFHKSIRSKYKPTPIPIKVKVKNVKEGIHFKSSVISIYVSESMDRSSKGQIIGNFQAFDEDTGLPAHARYVKLEDRDNWISVDSVTSEIKLAKLPDFESRYVQNGTYTVKIVAISEDYPRKTITGTVLINVEDINDNCPTLIEPVQTICHDAEYVNVTAEDLDGHPNSGPFSFSVIDKPPGMAEKWKIARQESTSVLLQQSEKKLGRSEIQFLISDNQGFSCPEKQVLTLTVCECLHGSGCREAQHDSYVGLGPAAIALMILAFLLLLLVPLLLLMCHCGKGAKGFTPIPGTIEMLHPWNNEGAPPEDKVVPSFLPVDQGGSLVGRNGVGGMAKEATMKGSSSASIVKGQHEMSEMDGRWEEHRSLLSGRATQFTGATGAIMTTETTKTARATGASRDMAGAQAAAVALNEEFLRNYFTDKAASYTEEDENHTAKDCLLVYSQEETESLNASIGCCSFIEGELDDRFLDDLGLKFKTLAEVCLGQKIDINKEIEQRQKPATETSMNTASHSLCEQTMVNSENTYSSGSSFPVPKSLQEANAEKVTQEIVTERSVSSRQAQKVATPLPDPMASRNVIATETSYVTGSTMPPTTVILGPSQPQSLIVTERVYAPASTLVDQPYANEGTVVVTERVIQPHGGGSNPLEGTQHLQDVPYVMVRERESFLAPSSGVQPTLAMPNIAVGQNVTVTERVLAPASTLQSSYQIPTENSMTARNTTVSGAGVPGPLPDFGLEESGHSNSTITTSSTRVTKHSTVQHSYS
Difference (log2), untreated vs GFP (GFP-14-3-3β; [2]): -0.9434 log2 | Difference (log2), PP1 vs untreated [1, 3]: -0.1595 log2

B4: LSM12 (protein, UniProt Q3MHD2 2-195, looked up)
Protein LSM12: AAPPGEYFSVGSQVSCRTCQEQRLQGEVVAFDYQSKMLALKCPSSSGKPNHADILLINLQYVSEVEIINDRTETPPPLASLNVSKLASKARTEKEEKLSQAYAISAGVSLEGQQLFQTIHKTIKDCKWQEKNIVVMEEVVITPPYQVENCKGKEGSALSHVRKIVEKHFRDVESQKILQRSQAQQPQKEAALSS
Difference (log2), untreated vs GFP (GFP-14-3-3β; log2 difference, pairwise comparison untreated vs GFP): 1.227 | Difference (log2), PP1 vs untreated ([1]; log2 difference, pairwise comparison PP1 vs untreated): 1.729

B6: KIFC3 (protein, UniProt Q9BVG8 1-833, looked up)
Kinesin-like protein KIFC3: MVPSRRTWNLGATPSLRGLWRVGRAPEPEPGMARPAPAPASPAARPFPHTGPGRLRTGRGKDTPVCGDEDSSARSAARPALAQCRALSVDWAGPGSPHGLYLTLQVEHLKEKLISQAQEVSRLRSELGGTDLEKHRDLLMVENERLRQEMRRCEAELQELRTKPAGPCPGCEHSQESAQLRDKLSQLQLEMAESKGMLSELNLEVQQKTDRLAEVELRLKDCLAEKAQEEERLSRRLRDSHETIASLRAQSPPVKYVIKTVEVESSKTKQALSESQARNQHLQEQVAMQRQVLKEMEQQLQSSHQLTARLRAQIAMYESELERAHGQMLEEMQSLEEDKNRAIEEAFARAQVEMKAVHENLAGVRTNLLTLQPALRTLTNDYNGLKRQVRGFPLLLQEALRSVKAEIGQAIEEVNSNNQELLRKYRRELQLRKKCHNELVRLKGNIRVIARVRPVTKEDGEGPEATNAVTFDADDDSIIHLLHKGKPVSFELDKVFSPQASQQDVFQEVQALVTSCIDGFNVCIFAYGQTGAGKTYTMEGTAENPGINQRALQLLFSEVQEKASDWEYTITVSAAEIYNEVLRDLLGKEPQEKLEIRLCPDGSGQLYVPGLTEFQVQSVDDINKVFEFGHTNRTTEFTNLNEHSSRSHALLIVTVRGVDCSTGLRTTGKLNLVDLAGSERVGKSGAEGSRLREAQHINKSLSALGDVIAALRSRQGHVPFRNSKLTYLLQDSLSGDSKTLMVVQVSPVEKNTSETLYSLKFAERVRSVELGPGLRRAELGSWSSQEHLEWEPACQTPQPSARAHSAPSSGTSSRPGSIRRKLQPSGKSRPLPV
Difference (log2), untreated vs GFP (GFP-14-3-3β; [2]): 1.361 log2 | Difference (log2), PP1 vs untreated [1, 3]: -0.1977 log2

Source: paper PMC7367873, “Dissecting the sequence determinants for dephosphorylation by the catalytic subunits of phosphatases PP1 and PP2A” (Nature Communications, 2020)
